Patent US12102667B2, “Polypeptides and antibiotics against gram-negative bacterium comprising the same” (priority 2021, dated 2024)

Tests used:
[1] = tested on: E. coli; experiment: MIC and MBC, broth microdilution in CAA medium; format: cell-based, Escherichia coli
Protocol: (§1) The MIC of the LNT113 or antibiotic was determined using modification of the broth microdilution method in a 96-well, round bottom, microplate according to the previously described method (Heselpoth et al., 2019). Exponentially grown cells were diluted to a concentration of 10^6 CFU/ml in a CAA medium, and then cultured with recombinant LNT113 (1-64 μg/ml) or antibiotics at 35° C. for 20 hours. […] The MBC was defined as the lowest concentration of the antibacterial agent with no growth on a plate. All analyses were performed in duplicate.

[2] = tested on: P. aeruginosa; experiment: MIC, broth microdilution; format: cell-based, Pseudomonas aeruginosa
Protocol: as §1

[3] = tested on: K. acrogenes; experiment: MIC, broth microdilution; format: cell-based, Klebsiella aerogenes
Protocol: as §1

[4] = tested on: E. cloacae; experiment: MIC, broth microdilution; format: cell-based, Enterobacter cloacae
Protocol: as §1

[5] = tested on: Salmonella enteritidis; experiment: MIC, broth microdilution; format: cell-based
Protocol: as §1

[6] = tested on: Salmonella typhimurium; experiment: MIC, broth microdilution; format: cell-based
Protocol: as §1

[7] = tested on: E. coli; experiment: Checkerboard assay (MIC in combination, FIC index); format: cell-based, Escherichia coli
Protocol: LNT113 was vertically diluted 2-fold and the antibiotic was serially diluted horizontally in a 96-well plate. Bacterium at a concentration of 10^6 CFU/ml were added to each well in a CAA medium. […] The fractional inhibitory concentration (FIC) for the LNT113 or antibiotic was calculated by dividing the MIC of two drugs by combining it with the MIC of each drug alone. […] The FICI was considered as a synergistic effect ≤0.5, an additive >0.5 ˜≤1, an independent effect (indifference)>1.0 ˜≤2, and an antagonistic effect (antagonism) >2.

[8] = tested on: E. coli ATCC 8739; experiment: 1-N-phenylnaphthylamine (NPN) absorption analysis, outer membrane permeability; format: cell-based, Escherichia coli; conditions: 2 μM
Protocol: NPN absorption analysis was performed by the previously described method (Helander and Mattila-Sandholm, 2000). In other words, E. coli ATCC 8739 grown to an exponential phase (OD600=0.4) was washed and resuspended with buffer solution (5 mM HEPES, pH 7.2) to about 10^8 cells/ml. 40 μM NPN (Sigma-Aldrich) 50 μl was mixed with the purified endolysin or Cecropin A (AbClon, Korea) 50 μl so that the final concentration was 2 μM in a 96-well black plate. Outer membrane permeation agents, 1 mM EDTA (Duchefa) and 2 μM Polymyxin B (Sigma-Aldrich) were used as a positive control group. Then, cell suspension 100 μl was added to each well, and cultured at 37° C. for 5 minutes. Buffer alone, buffer+NPN, cell suspension+buffer and cell suspension+buffer+NPN were used as a negative control group. Fluorescence was measured at excitation (350 nm) and emission (420 nm) using a microplate reader (SpectraMax iD3, Molecular Devices, USA). An NPN absorption factor was calculated by dividing the fluorescence value after background removal (the value that the value without NPN subtracted from the fluorescence value of the cell mixture with the sample) with the fluorescence value of the cell suspension with buffer subtracted from the fluorescence value of buffer without NPN.

B1: LNT113: fusion polypeptide: Cecropin A, (GGGGS)3 linker, mutant endolysin mtEC340; recombinant form with C-terminal His tag (protein)
chain: MKWKLFKKIEKVGQNIRDGIIKAGPAVAVVGQATQIAKGGGGSGGGGSGGGGSVSRNISNNGIKFTAAFEGFRGTAYRATPNEKYLTIGYGSYGPHVEPGKTITPGQGLLLLNRDMAKAVAAVDAVAHHSLTQSQFDAVCDLVYNAGAGVIAAATGTGKALRSGDVATLRAKLALFINQNGKPLLGLRRRTAGRLALFDGKPWQEAEAIGRAVKG
modifications: synthetic_Met+Cecropin A+GGGGS3 linker+mtEC340
notes: fusion polypeptide: Cecropin A, (GGGGS)3 linker, mutant endolysin mtEC340; recombinant form with C-terminal His tag
In the case of B1, the MBC ([1]; E. coli ATCC 8739) is reported as 8 µg/mL, the MIC ([1]; E. coli ATCC 8739) is reported as 8 µg/mL and the MBC ([1]; E. coli ATCC 25922) is reported as 64 µg/mL. It also gave an MIC ([1]; E. coli ATCC 25922) of 64 µg/mL, an MBC ([1]; E. coli ATCC 51739) of 8 µg/mL and an MIC ([1]; E. coli ATCC 51739) of 8 µg/mL. The MBC ([1]; E. coli CCARM 1A746) was 4 µg/mL, the MIC ([1]; E. coli CCARM 1A746) was 4 µg/mL and the MBC ([1]; E. coli CCARM 1G490) was 16 µg/mL. The MIC ([1]; E. coli CCARM 1G490) was 16 µg/mL, the MBC ([1]; E. coli ECOR 1) was 8 µg/mL and the MIC ([1]; E. coli ECOR 1) was 8 µg/mL. The MBC ([1]; E. coli ECOR 2) was 8 µg/mL, the MIC ([1]; E. coli ECOR 2) was 8 µg/mL and the MBC ([1]; E. coli ECOR 9) was 4 µg/mL. It also gave an MIC ([1]; E. coli ECOR 9) of 4 µg/mL, an MBC ([1]; E. coli ECOR 15) of 32 µg/mL and an MIC ([1]; E. coli ECOR 15) of 32 µg/mL. For the same molecule, the MBC ([1]; E. coli ECOR 35) was 16 µg/mL, the MIC ([1]; E. coli ECOR 35) was 16 µg/mL and the MBC ([1]; E. coli ECOR 36) was over 64 µg/mL. The MIC ([1]; E. coli ECOR 36) was over 64 µg/mL, the MBC ([1]; E. coli ECOR 43) was 16 µg/mL and the MIC ([1]; E. coli ECOR 43) was 16 µg/mL. For the same molecule, the MBC ([1]; E. coli ECOR 45) was 4 µg/mL, the MIC ([1]; E. coli ECOR 45) was 4 µg/mL and the MBC ([1]; E. coli ECOR 52) was over 64 µg/mL. For the same molecule, the MIC ([1]; E. coli ECOR 52) was 64 µg/mL, the MBC ([1]; E. coli ECOR 69) was over 64 µg/mL and the MIC ([1]; E. coli ECOR 69) was over 64 µg/mL. For the same molecule, the MBC ([1]; E. coli F485) was 4 µg/mL, the MIC ([1]; E. coli F485) was 4 µg/mL and the MBC ([1]; E. coli F524) was 8 µg/mL. It also gave an MIC ([1]; E. coli F524) of 8 µg/mL, an MBC ([1]; E. coli F576) of 4 µg/mL and an MIC ([1]; E. coli F576) of 4 µg/mL. It also gave an MBC ([1]; E. coli F716) of over 64 µg/mL, an MIC ([1]; E. coli F716) of over 64 µg/mL and an MBC ([1]; E. coli F852) of 16 µg/mL. It also gave an MIC ([1]; E. coli F852) of 8 µg/mL, an MBC ([1]; E. coli FORC81) of 8 µg/mL and an MIC ([1]; E. coli FORC81) of 8 µg/mL. For the same molecule, the MBC ([1]; E. coli UPEC 90) was 64 µg/mL, the MIC ([1]; E. coli UPEC 90) was 64 µg/mL and the MBC ([1]; E. coli UPEC 3038) was 16 µg/mL. The MIC ([1]; E. coli UPEC 3038) was 16 µg/mL, the MBC ([1]; E. coli UPEC 3042) was 16 µg/mL and the MIC ([1]; E. coli UPEC 3042) was 16 µg/mL. The MBC ([1]; E. coli UPEC 3051) was 16 µg/mL, the MIC ([1]; E. coli UPEC 3051) was 16 µg/mL and the MBC ([1]; E. coli UPEC 3150) was 8 µg/mL. It also gave an MIC ([1]; E. coli UPEC 3150) of 8 µg/mL, an MBC ([1]; E. coli UPEC 3151) of 64 µg/mL and an MIC ([1]; E. coli UPEC 3151) of 64 µg/mL. The MBC ([1]; E. coli UPEC 3163) was 16 µg/mL, the MIC ([1]; E. coli UPEC 3163) was 16 µg/mL and the MBC ([1]; E. coli UPEC 3164) was 32 µg/mL. For the same molecule, the MIC ([1]; E. coli UPEC 3164) was 32 µg/mL, the MBC ([1]; E. coli UPEC 3168) was 8 µg/mL and the MIC ([1]; E. coli UPEC 3168) was 8 µg/mL. For the same molecule, the MBC ([1]; E. coli UPEC 3181) was 8 µg/mL, the MIC ([1]; E. coli UPEC 3181) was 8 µg/mL and the “MBC compared with MIC” value ([1]; various E. coli strains) was “same as MIC”. For the same molecule, the “MIC in most of the strains” value ([1]; various E. coli strains of Table 2) was 4 to 64 µg/mL, the MIC ([2]; P. aeruginosa ATCC 15522) was 8 µg/mL and the MIC ([2]; P. aeruginosa F102) was 16 µg/mL. It also gave an MIC ([2]; P. aeruginosa F125) of 4 µg/mL, an MIC ([2]; P. aeruginosa F141) of 16 µg/mL and an MIC ([2]; P. aeruginosa F171) of 32 µg/mL. It also gave an MIC ([2]; P. aeruginosa F388) of 32 µg/mL, an MIC ([2]; P. aeruginosa PA01) of 4 µg/mL and an MIC ([3]; K. acrogenes CCARM 16006) of 16 µg/mL. For the same molecule, the MIC ([3]; K. acrogenes CCARM 16008) was 8 µg/mL, the MIC ([3]; K. acrogenes CCARM 16010) was 8 µg/mL and the MIC ([4]; E. cloacae ATCC 13047) was 16 µg/mL. For the same molecule, the MIC ([4]; E. cloacae CCARM 0252) was 4 µg/mL, the MIC ([4]; E. cloacae CCARM 16003) was 8 µg/mL and the MIC [5] was over 64 µg/mL. The MIC [6] was over 64 µg/mL, the “MIC of endolysin combined with colistin: LNT113” value (shortened to “MIC of endolysin combined”) ([7]; E. coli ATOCB739, Colistin 0) was 8 µg/mL and the “MIC of endolysin combined” value ([7]; E. coli ATOCB739, Colistin 0.0625) was 4 µg/mL. For the same molecule, the “MIC of endolysin combined” value ([7]; E. coli ATOCB739, Colistin 0.5) was 2 µg/mL, the “MIC of endolysin combined” value ([7]; E. coli ATOCB739, Colistin 1) was 1 µg/mL and the “MIC of endolysin combined” value ([7]; E. coli FORC81, Colistin 0) was 8 µg/mL. The “MIC of endolysin combined” value ([7]; E. coli FORC81, Colistin 1) was 4 µg/mL, the “MIC of endolysin combined” value ([7]; E. coli FORC81, Colistin 4) was 2 µg/mL and the “MIC of endolysin combined” value ([7]; E. coli FORC81, Colistin 8) was under 0.25 µg/mL. The “MIC of endolysin combined” value ([7]; E. coli UPEC3150, Colistin 0) was 8 µg/mL, the “MIC of endolysin combined” value ([7]; E. coli UPEC3150, Colistin 0.0625) was 4 µg/mL and the “MIC of endolysin combined” value ([7]; E. coli UPEC3150, Colistin 0.5) was 2 µg/mL. The “MIC of endolysin combined” value ([7]; E. coli UPEC3150, Colistin 2) was 1 µg/mL, the “increase of membrane penetration (NPN)” value [8] was 1.8 times and the “membrane penetration relative to cecropin A alone (NPN)” value [8] was 1.3 fold.
